In patent US20190134153A1, “IMMUNOMODULATORY EFFECT OF INHALED KINASE INHIBITOR PEPTIDES IN LUNG” (MOERAE MATRIX, INC., priority 2017, published 2019):

Tests used:
Assay in all cases: Kinase Profiling Assay
Assay type in all cases: biochemical
Settings in all cases: 100 μM
[1] = target: Abl (H396P) (h) (Homo sapiens, UniProt P00519, H396P)
[2] = target: Abl (M351T)(h) (Homo sapiens, UniProt P00519, M351T)
[3] = target: T1, Aurora-A(h) (Homo sapiens, UniProt O14965)
T1 sequence (O14965 1-403): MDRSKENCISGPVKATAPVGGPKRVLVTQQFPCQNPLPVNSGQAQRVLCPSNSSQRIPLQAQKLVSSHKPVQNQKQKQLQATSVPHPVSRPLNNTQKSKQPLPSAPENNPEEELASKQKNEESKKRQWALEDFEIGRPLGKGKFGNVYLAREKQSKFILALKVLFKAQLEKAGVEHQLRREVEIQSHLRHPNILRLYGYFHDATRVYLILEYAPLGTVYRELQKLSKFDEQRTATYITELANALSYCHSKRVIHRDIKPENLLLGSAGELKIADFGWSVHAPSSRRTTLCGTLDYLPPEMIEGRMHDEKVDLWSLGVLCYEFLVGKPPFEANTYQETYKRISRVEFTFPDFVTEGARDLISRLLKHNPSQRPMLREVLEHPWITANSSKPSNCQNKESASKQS

[4] = target: JNK1α1(h) (Homo sapiens, UniProt P45983)
Chain of JNK1α1(h) (P45983 1-384 isoform P45983-2): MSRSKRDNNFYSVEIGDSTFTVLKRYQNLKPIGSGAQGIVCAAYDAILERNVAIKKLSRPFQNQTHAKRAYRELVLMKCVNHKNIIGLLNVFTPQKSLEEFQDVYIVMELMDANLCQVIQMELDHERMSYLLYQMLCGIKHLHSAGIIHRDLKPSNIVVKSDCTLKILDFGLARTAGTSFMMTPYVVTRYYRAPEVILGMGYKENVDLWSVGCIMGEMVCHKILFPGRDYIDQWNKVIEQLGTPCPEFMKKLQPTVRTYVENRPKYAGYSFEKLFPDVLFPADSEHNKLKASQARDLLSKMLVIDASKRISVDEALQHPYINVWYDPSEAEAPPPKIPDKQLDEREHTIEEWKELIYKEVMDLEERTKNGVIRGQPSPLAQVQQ

[5] = target: T2, MKK7β(h) (Homo sapiens, UniProt O14733)
T2 sequence (O14733 1-419): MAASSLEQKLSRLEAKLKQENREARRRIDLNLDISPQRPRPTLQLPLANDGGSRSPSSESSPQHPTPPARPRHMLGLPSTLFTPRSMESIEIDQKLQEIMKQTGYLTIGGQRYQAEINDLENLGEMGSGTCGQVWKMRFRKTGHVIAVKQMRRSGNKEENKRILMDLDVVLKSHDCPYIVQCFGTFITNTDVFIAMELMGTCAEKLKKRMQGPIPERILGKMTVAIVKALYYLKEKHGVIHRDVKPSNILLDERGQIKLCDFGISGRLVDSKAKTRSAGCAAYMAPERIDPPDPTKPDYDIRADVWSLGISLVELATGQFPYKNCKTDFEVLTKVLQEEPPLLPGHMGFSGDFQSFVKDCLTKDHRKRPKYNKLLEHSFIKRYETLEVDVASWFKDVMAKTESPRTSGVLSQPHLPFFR

[6] = target: T3, PDK1(h) (Homo sapiens, UniProt O15530)
T3 sequence (O15530 1-556): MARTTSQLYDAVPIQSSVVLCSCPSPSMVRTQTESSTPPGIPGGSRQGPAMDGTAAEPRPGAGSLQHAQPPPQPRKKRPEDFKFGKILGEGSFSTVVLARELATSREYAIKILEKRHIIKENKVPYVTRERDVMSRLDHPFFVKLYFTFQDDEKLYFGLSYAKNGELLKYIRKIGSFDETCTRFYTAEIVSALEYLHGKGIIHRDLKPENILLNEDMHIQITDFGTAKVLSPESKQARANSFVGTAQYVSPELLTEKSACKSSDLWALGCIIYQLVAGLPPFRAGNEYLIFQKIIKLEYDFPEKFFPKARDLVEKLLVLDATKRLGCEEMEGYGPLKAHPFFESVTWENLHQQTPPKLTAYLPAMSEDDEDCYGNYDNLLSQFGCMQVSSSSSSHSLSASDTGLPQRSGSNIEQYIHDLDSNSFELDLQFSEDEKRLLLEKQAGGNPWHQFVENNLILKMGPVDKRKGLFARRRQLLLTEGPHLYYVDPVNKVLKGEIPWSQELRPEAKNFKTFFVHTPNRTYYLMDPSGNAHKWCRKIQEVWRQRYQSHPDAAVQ

[7] = target: WNK3(h) (Homo sapiens, UniProt Q9BYP7)
Chain of WNK3(h) (Q9BYP7 whole entry): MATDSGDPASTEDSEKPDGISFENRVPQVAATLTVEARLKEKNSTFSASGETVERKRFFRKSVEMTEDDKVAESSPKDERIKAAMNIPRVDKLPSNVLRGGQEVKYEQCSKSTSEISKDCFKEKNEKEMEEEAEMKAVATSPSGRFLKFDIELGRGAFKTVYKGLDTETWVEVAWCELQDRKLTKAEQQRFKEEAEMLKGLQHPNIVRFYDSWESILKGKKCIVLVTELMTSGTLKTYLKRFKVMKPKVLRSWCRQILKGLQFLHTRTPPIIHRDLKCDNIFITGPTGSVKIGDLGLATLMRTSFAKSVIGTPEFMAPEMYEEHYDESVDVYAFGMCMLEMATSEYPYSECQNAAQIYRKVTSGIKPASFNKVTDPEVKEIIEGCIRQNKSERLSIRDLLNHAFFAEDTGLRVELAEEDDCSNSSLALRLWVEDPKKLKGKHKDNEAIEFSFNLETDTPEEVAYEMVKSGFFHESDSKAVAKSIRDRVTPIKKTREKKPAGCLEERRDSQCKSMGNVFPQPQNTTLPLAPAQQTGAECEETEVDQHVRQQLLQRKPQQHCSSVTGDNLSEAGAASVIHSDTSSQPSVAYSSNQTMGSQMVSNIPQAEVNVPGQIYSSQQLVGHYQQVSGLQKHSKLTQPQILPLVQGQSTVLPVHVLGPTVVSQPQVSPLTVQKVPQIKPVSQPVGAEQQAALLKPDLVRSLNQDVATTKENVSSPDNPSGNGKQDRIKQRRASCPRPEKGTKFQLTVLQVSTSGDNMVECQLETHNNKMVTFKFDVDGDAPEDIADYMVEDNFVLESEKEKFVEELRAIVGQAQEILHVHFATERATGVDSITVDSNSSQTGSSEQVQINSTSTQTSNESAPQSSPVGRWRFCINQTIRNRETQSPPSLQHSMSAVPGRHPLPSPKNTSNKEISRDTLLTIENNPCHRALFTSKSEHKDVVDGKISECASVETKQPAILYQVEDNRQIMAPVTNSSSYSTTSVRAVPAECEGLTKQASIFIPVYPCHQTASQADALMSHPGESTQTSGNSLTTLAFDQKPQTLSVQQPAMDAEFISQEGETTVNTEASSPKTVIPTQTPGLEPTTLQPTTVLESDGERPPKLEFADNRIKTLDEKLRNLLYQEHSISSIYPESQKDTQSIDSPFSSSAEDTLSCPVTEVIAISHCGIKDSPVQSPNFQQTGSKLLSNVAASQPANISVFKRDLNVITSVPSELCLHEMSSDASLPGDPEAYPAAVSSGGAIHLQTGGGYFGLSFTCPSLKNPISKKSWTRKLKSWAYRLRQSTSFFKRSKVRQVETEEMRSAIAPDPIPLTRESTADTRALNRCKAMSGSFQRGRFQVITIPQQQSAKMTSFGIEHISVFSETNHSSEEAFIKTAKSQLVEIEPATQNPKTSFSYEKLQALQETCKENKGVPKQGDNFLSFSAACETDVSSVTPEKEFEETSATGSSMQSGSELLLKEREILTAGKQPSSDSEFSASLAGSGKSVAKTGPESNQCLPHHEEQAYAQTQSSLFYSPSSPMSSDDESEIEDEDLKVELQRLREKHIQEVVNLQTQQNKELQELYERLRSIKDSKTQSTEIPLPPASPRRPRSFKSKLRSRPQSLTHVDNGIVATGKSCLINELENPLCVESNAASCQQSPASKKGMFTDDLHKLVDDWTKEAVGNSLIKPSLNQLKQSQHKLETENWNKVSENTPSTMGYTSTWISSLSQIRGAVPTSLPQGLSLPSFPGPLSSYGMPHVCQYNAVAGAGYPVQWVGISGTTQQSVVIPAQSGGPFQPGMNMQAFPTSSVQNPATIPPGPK

[8] = target: cKit(V560G)(h) (Homo sapiens, UniProt P10721, V560G)
[9] = target: PAR-1Bα(h) (Homo sapiens, UniProt Q7KZI7)
Chain of PAR-1Bα(h) (Q7KZI7 1-725 isoform Q7KZI7-4): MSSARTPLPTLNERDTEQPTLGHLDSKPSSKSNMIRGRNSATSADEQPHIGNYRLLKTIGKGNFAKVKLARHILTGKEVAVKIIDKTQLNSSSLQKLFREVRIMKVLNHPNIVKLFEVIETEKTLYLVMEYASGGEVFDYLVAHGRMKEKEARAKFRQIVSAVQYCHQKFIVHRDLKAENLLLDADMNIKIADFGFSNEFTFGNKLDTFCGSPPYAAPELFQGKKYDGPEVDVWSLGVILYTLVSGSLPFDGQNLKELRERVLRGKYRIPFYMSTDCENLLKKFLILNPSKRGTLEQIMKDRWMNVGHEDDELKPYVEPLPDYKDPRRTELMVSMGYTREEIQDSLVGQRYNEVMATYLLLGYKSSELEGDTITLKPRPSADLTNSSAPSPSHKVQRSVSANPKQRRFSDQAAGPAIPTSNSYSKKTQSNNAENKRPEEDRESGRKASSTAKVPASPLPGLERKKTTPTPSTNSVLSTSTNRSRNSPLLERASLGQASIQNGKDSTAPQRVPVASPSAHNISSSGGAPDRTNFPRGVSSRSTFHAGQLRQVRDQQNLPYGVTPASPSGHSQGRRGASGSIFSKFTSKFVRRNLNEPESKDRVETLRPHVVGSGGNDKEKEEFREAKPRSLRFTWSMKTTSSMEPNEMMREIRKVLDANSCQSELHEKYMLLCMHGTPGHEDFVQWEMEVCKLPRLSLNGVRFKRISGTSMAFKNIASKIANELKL

[10] = target: PDGFRα(D842V)(h) (Homo sapiens, UniProt P16234, D842V)
Chain of PDGFRα(D842V)(h) (P16234 24-1089 D842V): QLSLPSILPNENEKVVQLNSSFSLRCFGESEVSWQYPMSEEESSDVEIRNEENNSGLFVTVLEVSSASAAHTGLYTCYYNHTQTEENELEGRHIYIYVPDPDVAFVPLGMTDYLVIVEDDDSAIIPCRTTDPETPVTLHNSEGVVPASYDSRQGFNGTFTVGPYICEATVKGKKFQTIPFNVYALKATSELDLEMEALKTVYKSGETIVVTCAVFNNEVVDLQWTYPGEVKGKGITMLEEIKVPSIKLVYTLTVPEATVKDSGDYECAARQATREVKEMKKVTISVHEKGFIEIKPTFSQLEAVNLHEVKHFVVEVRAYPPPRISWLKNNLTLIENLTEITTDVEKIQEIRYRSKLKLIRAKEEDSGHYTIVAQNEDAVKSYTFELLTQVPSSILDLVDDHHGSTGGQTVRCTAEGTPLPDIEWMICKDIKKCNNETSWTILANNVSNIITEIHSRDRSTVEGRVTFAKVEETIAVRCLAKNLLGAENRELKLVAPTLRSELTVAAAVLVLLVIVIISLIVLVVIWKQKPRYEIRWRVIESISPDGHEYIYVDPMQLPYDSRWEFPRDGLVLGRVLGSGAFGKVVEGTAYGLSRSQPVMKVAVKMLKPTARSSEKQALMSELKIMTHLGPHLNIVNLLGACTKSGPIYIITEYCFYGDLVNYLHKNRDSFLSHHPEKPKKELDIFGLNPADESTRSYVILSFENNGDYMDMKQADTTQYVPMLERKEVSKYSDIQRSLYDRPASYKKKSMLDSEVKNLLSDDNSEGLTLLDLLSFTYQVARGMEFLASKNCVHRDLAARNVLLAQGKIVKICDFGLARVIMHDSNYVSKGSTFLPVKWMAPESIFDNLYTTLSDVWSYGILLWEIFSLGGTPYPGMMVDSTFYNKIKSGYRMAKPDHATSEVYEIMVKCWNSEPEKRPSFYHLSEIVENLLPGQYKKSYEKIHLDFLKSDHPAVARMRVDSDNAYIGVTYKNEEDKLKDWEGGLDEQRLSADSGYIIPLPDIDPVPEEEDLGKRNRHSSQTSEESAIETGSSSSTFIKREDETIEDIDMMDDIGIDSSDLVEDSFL

[11] = target: PKA(h) (Homo sapiens, UniProt P17612)
[12] = target: MAPK1(h) (Homo sapiens, UniProt P27361)
Chain of MAPK1(h) (P27361 whole entry): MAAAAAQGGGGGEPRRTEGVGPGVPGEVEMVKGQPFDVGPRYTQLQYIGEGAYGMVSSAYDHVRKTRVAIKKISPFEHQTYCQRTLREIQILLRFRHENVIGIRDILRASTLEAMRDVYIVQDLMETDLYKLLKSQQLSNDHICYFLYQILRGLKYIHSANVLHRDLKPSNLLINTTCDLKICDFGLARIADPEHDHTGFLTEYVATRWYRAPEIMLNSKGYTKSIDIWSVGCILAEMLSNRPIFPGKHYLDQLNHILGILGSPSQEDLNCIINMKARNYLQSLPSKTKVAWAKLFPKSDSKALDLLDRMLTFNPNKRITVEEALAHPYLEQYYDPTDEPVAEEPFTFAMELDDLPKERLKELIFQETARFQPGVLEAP

[13] = target: Tie2(R849W)(h) (Homo sapiens, UniProt Q02763, R849W)

| Sequence | % activity [1] [%] | % activity [2] [%] | % activity [3] [%] | % activity [4] [%] | % activity [5] [%] | % activity [6] [%] | % activity [7] [%] | % activity [8] [%] | % activity [9] [%] | % activity [10] [%] | % activity [11] [%] | % activity [12] [%] | % activity [13] [%] |
| --- | --- | --- | --- | --- | --- | --- | --- | --- | --- | --- | --- | --- | --- |
| FAKLAARLYRKALARQLGVAA [MMI-0300] | 101 | 90 | 92 | 97 | 100 | 135 | 77 | – | – | – | – | – | – |
| HRRIKAWLKKIKALARQLGVAA [MMI-0500] | 51 | 61 | 110 | – | – | 178 | 9 | 198 | 97 | 170 | 118 | – | – |
| KAFAKLAARLYRKALARQLGVAA [MMI-0400] | – | – | – | 98 | 94 | 159 | 74 | 124 | – | 118 | – | 100 | 108 |
| YARAAARQARAKALNRQLGVA [MMI-0200] | – | – | – | – | – | 143 | 97 | – | 110 | – | 110 | 97 | 89 |
